Tests used:
Experiment in all cases: Kinase Profiling Assay
Type in all cases: biochemical
Conditions in all cases: 100 μM
[1] = target: Syk(h) (Homo sapiens, UniProt P43405)
[2] = target: T1, MST1(h) (Homo sapiens, UniProt Q13043)
T1 sequence (Q13043 1-487): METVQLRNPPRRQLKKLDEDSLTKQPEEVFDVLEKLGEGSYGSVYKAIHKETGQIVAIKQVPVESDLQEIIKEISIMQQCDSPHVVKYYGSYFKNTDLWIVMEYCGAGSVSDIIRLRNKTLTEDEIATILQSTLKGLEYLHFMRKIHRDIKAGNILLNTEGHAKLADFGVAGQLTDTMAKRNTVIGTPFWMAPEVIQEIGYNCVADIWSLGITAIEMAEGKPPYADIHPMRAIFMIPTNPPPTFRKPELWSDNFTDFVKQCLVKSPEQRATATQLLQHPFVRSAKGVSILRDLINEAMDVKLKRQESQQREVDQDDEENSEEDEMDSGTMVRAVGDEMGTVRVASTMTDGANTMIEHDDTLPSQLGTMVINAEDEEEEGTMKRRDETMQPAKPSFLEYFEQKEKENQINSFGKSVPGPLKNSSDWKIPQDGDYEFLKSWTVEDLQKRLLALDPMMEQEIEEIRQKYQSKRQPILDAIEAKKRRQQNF

[3] = target: EphA2(h) (Homo sapiens, UniProt P29317)
[4] = target: FGFR4(h) (Homo sapiens, UniProt P22455)
[5] = target: T2, CaMKIV(h) (Homo sapiens, UniProt Q16566)
T2 sequence (Q16566 1-473): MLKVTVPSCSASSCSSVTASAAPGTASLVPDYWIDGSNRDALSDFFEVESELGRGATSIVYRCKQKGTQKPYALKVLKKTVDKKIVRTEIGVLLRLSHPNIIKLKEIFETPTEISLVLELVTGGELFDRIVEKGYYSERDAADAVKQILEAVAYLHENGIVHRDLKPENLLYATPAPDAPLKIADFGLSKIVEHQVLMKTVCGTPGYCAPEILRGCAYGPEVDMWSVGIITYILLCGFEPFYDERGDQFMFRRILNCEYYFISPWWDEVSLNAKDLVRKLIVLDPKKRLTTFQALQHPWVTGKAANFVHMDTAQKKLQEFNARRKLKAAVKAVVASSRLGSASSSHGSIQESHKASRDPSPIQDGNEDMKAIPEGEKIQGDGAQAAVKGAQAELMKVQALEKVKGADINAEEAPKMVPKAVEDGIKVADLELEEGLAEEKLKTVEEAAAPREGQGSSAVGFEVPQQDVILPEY

[6] = target: T3, TAO2(h) (Homo sapiens, UniProt Q9UL54)
T3 sequence (Q9UL54 1-1235): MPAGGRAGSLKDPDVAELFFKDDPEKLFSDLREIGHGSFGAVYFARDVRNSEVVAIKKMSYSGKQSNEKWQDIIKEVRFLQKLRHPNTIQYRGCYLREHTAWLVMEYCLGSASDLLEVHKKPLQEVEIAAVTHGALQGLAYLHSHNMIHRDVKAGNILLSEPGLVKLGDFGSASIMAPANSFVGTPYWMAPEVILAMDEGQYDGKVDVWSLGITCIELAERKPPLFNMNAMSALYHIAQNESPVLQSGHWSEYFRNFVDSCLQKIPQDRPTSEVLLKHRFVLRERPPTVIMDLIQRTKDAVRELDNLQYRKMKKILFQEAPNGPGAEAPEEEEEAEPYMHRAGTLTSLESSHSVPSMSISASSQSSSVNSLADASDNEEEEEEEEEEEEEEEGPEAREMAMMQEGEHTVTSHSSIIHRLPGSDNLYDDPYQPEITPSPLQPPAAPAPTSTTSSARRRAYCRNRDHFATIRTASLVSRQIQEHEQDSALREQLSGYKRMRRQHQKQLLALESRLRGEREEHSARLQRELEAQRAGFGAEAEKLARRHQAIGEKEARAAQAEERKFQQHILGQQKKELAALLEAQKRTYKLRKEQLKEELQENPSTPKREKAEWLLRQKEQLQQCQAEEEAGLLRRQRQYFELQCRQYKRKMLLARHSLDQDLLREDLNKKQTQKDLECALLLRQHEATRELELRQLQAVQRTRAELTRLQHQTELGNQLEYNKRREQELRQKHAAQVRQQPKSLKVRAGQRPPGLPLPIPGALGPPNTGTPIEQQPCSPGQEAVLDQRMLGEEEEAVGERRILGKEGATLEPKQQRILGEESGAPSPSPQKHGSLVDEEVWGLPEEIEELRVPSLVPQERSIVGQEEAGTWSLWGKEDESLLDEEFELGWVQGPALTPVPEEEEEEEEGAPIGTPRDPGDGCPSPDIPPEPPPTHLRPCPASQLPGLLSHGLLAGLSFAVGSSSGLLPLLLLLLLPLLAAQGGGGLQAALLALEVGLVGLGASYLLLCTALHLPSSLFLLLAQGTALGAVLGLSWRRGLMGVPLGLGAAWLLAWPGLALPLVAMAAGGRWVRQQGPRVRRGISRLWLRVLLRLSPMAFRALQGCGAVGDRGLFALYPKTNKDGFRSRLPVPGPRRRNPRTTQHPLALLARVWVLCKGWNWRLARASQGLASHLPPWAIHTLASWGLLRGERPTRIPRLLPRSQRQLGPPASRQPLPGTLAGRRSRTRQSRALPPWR

[7] = target: TrkA(h) (Homo sapiens, UniProt P04629)
[8] = target: Met(D1246N)(h) (Homo sapiens, UniProt P08581, D1228N)
[9] = target: MAPK2(h) (Homo sapiens, UniProt P28482)
[10] = target: HIPK2(h) (Homo sapiens, UniProt Q9H2X6)
[11] = target: Mnk2(h) (Homo sapiens, UniProt Q9HBH9)
[12] = target: PKCα(h) (Homo sapiens, UniProt P17252)

Chain of Mnk2(h) (Q9HBH9 whole entry): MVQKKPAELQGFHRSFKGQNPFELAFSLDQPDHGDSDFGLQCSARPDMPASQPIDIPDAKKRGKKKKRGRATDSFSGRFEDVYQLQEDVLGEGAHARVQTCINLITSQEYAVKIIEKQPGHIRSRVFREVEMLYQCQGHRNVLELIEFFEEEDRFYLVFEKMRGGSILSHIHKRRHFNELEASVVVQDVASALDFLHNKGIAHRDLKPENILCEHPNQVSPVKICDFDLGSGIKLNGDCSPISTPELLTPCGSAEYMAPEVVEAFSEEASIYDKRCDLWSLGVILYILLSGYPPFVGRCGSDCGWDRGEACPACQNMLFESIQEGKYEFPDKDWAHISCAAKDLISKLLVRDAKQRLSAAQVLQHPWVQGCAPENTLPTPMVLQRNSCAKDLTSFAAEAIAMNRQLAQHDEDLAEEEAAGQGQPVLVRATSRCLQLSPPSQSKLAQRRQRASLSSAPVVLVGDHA
Chain of HIPK2(h) (Q9H2X6 whole entry): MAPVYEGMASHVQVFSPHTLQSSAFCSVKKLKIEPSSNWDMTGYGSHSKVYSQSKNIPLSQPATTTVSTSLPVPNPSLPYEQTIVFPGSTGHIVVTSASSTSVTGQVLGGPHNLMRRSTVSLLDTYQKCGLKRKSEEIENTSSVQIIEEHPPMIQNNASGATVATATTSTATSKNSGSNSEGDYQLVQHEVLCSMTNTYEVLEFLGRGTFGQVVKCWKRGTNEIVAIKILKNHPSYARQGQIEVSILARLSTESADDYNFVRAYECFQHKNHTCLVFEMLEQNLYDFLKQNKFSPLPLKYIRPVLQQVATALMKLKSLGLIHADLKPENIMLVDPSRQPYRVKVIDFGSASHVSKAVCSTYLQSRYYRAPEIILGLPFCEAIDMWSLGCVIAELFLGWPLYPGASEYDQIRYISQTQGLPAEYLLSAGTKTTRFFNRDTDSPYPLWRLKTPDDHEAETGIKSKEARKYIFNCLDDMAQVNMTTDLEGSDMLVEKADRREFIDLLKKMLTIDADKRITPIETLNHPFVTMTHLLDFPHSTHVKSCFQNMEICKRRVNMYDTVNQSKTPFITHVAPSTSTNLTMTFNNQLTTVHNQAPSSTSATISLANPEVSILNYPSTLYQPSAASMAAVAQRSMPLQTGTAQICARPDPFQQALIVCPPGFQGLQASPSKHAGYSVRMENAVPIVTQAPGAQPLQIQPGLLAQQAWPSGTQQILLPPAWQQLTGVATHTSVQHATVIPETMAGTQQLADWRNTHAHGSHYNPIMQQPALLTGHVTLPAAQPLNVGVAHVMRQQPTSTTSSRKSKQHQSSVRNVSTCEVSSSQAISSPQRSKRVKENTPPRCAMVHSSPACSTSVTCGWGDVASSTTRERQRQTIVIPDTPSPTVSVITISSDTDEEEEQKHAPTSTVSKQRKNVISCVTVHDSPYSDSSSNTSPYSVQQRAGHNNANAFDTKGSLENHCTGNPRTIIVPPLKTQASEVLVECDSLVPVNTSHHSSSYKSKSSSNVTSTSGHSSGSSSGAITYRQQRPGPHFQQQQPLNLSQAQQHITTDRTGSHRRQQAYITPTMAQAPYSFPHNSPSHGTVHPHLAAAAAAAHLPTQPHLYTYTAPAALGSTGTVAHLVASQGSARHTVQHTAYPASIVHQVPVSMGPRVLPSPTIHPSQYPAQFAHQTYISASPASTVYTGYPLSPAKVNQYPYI
Chain of MAPK2(h) (P28482 whole entry): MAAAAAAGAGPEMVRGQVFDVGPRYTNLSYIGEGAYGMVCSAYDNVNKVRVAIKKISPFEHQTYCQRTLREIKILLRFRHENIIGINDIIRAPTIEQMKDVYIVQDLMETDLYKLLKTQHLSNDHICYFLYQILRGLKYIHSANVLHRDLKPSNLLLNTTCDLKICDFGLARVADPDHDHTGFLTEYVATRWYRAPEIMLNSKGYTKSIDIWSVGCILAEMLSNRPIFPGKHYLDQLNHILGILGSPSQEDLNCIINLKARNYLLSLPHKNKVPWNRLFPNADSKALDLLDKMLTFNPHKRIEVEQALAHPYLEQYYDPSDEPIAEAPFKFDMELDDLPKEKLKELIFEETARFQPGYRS
Chain of TrkA(h) (P04629 33-796): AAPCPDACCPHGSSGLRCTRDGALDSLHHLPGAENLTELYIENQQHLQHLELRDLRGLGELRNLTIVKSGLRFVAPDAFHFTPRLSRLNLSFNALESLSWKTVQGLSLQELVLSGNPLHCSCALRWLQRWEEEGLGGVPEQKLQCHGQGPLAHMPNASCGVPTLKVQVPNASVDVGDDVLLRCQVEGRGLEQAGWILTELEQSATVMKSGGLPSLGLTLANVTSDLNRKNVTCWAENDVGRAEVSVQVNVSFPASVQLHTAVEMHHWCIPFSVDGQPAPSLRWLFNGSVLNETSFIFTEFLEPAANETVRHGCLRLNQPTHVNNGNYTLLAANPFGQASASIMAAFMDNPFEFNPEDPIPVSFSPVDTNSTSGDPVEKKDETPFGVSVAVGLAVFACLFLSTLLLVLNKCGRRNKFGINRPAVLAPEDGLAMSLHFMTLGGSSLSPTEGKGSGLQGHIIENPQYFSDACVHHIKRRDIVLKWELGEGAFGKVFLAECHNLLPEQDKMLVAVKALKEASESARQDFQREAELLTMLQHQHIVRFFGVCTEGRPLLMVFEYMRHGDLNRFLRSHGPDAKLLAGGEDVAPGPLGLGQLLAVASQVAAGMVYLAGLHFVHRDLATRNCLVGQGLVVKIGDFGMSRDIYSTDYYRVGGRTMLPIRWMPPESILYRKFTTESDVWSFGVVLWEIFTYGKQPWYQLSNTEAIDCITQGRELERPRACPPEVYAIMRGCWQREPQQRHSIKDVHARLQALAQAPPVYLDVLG

| Sequence | % activity [1] [%] | % activity [2] [%] | % activity [3] [%] | % activity [4] [%] | % activity [5] [%] | % activity [6] [%] | % activity [7] [%] | % activity [8] [%] | % activity [9] [%] | % activity [10] [%] | % activity [11] [%] | % activity [12] [%] |
| --- | --- | --- | --- | --- | --- | --- | --- | --- | --- | --- | --- | --- |
| FAKLAARLYRKALARQLGVAA [MMI-0300] | 24 | 14 | 31 | 28 | 17 | 70 | 25 | 82 | 98 | 73 | 89 | 89 |
| KAFAKLAARLYRKALARQLGVAA [MMI-0400] | 9 | 6 | 17 | 19 | 18 | 74 | 17 | 31 | 93 | 90 | 86 | 86 |
| YARAAARQARAKALNRQLGVA [MMI-0200] | 36 | 72 | 95 | 75 | 71 | 93 |  | 149 |  |  |  | 100 |
| HRRIKAWLKKIKALARQLGVAA [MMI-0500] | 5 | 3 |  | 3 | −1 | 15 | 24 | 90 | 60 | 38 | 6 | 3 |

From US20190134153A1, “IMMUNOMODULATORY EFFECT OF INHALED KINASE INHIBITOR PEPTIDES IN LUNG” (MOERAE MATRIX, INC., priority 2017, published 2019)
